# Laboratory results from US20220153832A1 (PIONYR IMMUNOTHERAPEUTICS, published 2022).
# T1: Human Macrophage Receptor with Collagenous Structure (MARCO), full length, on cells (human, UniProt Q9UEW3 1-520)
# T1 construct: the cell type is named under assay; also called huMARCO; HuMARCO
# T1 sequence: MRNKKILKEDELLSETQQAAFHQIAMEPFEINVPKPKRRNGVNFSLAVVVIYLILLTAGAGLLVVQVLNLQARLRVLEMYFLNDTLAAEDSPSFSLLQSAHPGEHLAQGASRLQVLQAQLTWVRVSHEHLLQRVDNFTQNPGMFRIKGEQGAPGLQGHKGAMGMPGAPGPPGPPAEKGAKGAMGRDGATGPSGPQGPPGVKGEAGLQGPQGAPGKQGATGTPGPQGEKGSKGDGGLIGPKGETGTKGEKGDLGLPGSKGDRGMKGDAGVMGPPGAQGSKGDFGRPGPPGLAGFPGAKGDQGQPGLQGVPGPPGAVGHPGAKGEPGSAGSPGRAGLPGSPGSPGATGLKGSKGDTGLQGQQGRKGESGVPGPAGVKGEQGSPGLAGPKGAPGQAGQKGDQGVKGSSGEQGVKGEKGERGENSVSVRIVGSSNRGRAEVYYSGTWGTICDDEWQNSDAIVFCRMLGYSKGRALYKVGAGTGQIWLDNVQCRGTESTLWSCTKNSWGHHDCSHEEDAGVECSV
# T2: N-terminally polyhistidine tagged human MARCO ECD (147-520), recombinant (human, UniProt Q9UEW3 147-520)
# T2 construct: also called PI-RG-3000; recombinant human MARCO; not shown: N-terminal polyhistidine tag
# T2 sequence: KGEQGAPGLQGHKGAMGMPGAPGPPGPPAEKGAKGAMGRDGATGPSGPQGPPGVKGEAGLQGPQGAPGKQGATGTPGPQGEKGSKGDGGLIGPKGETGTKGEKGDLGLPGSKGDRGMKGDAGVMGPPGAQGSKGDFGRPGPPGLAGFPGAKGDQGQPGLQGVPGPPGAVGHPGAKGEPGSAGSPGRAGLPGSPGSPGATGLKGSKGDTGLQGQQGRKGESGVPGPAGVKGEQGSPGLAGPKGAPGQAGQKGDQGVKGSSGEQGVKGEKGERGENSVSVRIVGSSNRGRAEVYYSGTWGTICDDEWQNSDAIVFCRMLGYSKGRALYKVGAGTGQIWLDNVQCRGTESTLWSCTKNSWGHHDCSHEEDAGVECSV
# T3: Cynomolgus MARCO, full length, on cells (cynomolgus, UniProt A0A2K5X0Z2 1-519)
# T3 construct: whole, on cells; also called cyno MARCO; CyMARCO
# T3 sequence: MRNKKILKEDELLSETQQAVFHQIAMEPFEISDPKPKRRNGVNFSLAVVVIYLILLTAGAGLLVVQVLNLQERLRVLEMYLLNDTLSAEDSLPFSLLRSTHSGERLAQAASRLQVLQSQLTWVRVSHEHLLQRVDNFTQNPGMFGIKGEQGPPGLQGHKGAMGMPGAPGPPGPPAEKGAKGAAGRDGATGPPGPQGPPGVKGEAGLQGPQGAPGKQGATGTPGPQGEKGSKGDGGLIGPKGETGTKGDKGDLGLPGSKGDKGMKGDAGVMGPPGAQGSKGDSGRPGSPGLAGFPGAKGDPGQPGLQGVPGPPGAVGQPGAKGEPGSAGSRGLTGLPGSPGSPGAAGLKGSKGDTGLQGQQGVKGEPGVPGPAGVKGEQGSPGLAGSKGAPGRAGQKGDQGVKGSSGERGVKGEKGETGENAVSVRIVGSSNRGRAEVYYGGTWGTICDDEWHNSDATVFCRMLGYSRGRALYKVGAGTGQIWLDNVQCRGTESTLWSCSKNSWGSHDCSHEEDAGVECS
# Key:
# [1] = target: T1, Human Macrophage Receptor with …; test: flow cytometry, 293T (HuMARCO)
# Procedure: Supernatants were removed and cell pellets were resuspended in Ca²⁺+ and Mg²⁺+ Dulbecco's phosphate-buffered saline (D-PBS) at 1×10⁶ cells/ml. 100,000 cells/well were plated onto U-bottom 96-well plates for staining and all centrifugation steps were performed at 1500 rpm at 4° C. for 5 min and samples were kept protected from light throughout the protocol. Cells were pelleted and resuspended in 100 μl of Zombie NIR viability dye (BioLegend) prepared by diluting Zombie NIR dimethyl sulfoxide (DMSO) stock 1000-fold in D-PBS. Cells were stained by incubation for 10 min at room temperature (RT) in the dark, followed by quenching the staining reaction with the addition of 100 μl of Staining Medium (D-PBS containing 2% FBS and 2 mM ethylenediaminetetraacetic acid (EDTA). Cells were pelleted and resuspended in 100 μl of the different antibodies and hybridomas supernatants needed for screening and corresponding isotype controls in freshly prepared staining medium, such as PI-M014 and mIgG2b isotype. All mAbs were tested at the final top concentration of 100 nM (15 μg/ml) followed by an 8-point three-fold serial dilution, including 0 mg/ml control. Staining was carried out for 1 hour (hr) on ice, followed by 2 washes in Staining Medium. Cells were then pelleted and resuspended in 100 μl of allophycocyanin (APC)-conjugated goat anti-mouse IgG (Fc-specific) secondary antibody, prepared by 500-fold dilution of the antibody stocks in Staining Medium, and incubated for 30 min on ice. Plates were then washed two times with Staining Medium, followed by resuspension in 150 μl of the same buffer for acquisition on the flow cytometer (Attune NxT, Life Technologies). Flow cytometry data were analyzed using FlowJo software (version 10.6.1) and data were processed and further analyzed in Microsoft Excel and GraphPad Prism software (version 8). Half-maximal effective concentrations (EC₅₀) were calculated based on geometric mean fluorescence intensities (gMFI). In case when the plates were not able to be analyzed on the cytometer, cells were pelleted after the washes and fixed in 100 μl of 2% paraformaldehyde (PFA), prepared by diluting the 16% (w/v) stock (Thermo Fisher) in DPBS, for 15 min at RT. Cells were then pelleted and the fixative was removed, followed by resuspension in 150 μl of Staining Medium and stored at 4° C. until acquisition on the flow cytometer.
# [2] = target: T2, N-terminally polyhistidine tagged human …; test: SPR, multi cycle kinetics, huMARCO antigen
# Outline: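 On a CM4 chip, anti-mouse Fc mAb was amine-coupled to a 4500 RU target and used to capture the antibodies. Their binding kinetics and affinity for N-terminally His-tagged human MARCO extracellular domain (147-520) were then measured by multi-cycle surface plasmon resonance on a Biacore T200. This was done at 25° C in 10 mM HEPES pH 7.4, 150 mM NaCl, 3 mM EDTA, 0.05% surfactant P20, with 0.625–10 nM injections, 90 s association and 600 s dissociation, and fitting in BIAevaluation 3.1.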
# [3] = target: T3, Cynomolgus MARCO, full length, on cells; test: flow cytometry, 293T CyMARCO cells
# Outline: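 HEK293T cells expressing human or cynomolgus MARCO were tested for antibody binding by flow cytometry. At 100,000 cells/well, Zombie NIR-stained cells received an 8-point three-fold dilution of antibody from 100 nM in D-PBS/2% FBS/2 mM EDTA for 1 hr on ice, then APC goat anti-mouse IgG for 30 min on ice. Geometric mean fluorescence intensities were analysed in FlowJo and Prism.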
EC50 [1] [nM],Kd [2] [nM],binding result [3],Binder
0.49,0.256,,"PI-HX-3061 (antibody, rat IgG2a, Parental rat hybridoma, rat IgG2a; cross reactive with human and mouse MARCO) heavy: EVQLVESGGGLVQPGSSLKLSCVASKFTFSNYGMNWIRQAPKKGLEWIALIYYNSNNKYYADSVKGRFTISRDNSKNTLYLEMNSLRSEDTAMYYCAKSLTGGSDYFDSWGQGVMVTVSSAETTAPSVYPLAPGTALKSNSMVTLGCLVKGYFPEPVTVTWNSGALSSGVHTFPAVLQSGLYTLTSSVTVPSSTWPSQTVTCNVAHPASSTKVDKKIVPRNCGGDCKPCICTGSEVSSVFIFPPKPKDVLTITLTPKVTCVVVDISQDDPEVHFSWFVDDVEVHTAQTRPPEEQFNSTFRSVSELPILHQDWLNGRTFRCKVTSAAFPSPIEKTISKPEGRTQVPHVYTMSPTKEEMTQNEVSITCMVKGFYPPDIYVEWQMNGQPQENYKNTPPTMDTDGSYFLYSKLNVKKEKWQQGNTFTCSVLHEGLHNHHTEKSLSHSP light: DVQMTQSPSYLAASPGESVSISCKASKSIGTFLAWYQEKPEKTNKLLIYSGSTLQSGTPSRFSGSGSGTDFTLTIRNLEPEDFAVYYCQQHDEYPFTFGSGTKLEIKRADAAPTVSIFPPSTEQLATGGASVVCLMNNFYPRDISVKWKIDGTERRDGVLDSVTDQDSKDSTYSMSSTLSLTKADYESHNLYTCEVVHKTSSSPVVKSFNRNEC"
0.141,0.0913,,"PI-HX-3031 (antibody, Parental rat hybridoma, rat IgG2a) heavy: QVQLKESGPGLVQPSQTLSLTCTVSGFSLTSYHVSWVRQPPGKGLEWMGAIWTGGSIAYNSLLKSRLSISRDTSKSQVFLKMNSLQTEDTATYYCARDLSDYYSSYTSFDYWGQGVMVTVSTAETTAPSVYPLAPGTALKSNSMVTLGCLVKGYFPEPVTVTWNSGALSSGVHTFPAVLQSGLYTLTSSVTVPSSTWSSQAVTCNVAHPASSTKVDKKIVPRECNPCGCTGSEVSSVFIFPPKTKDVLTITLTPKVTCVVVDISQNDPEVRFSWFIDDVEVHTAQTHAPEKQSNSTLRSVSELPIVHRDWLNGKTFKCKVNSGAFPAPIEKSISKPEGTPRGPQVYTMAPPKEEMTQSQVSITCMVKGFYPPDIYTEWKMNGQPQENYKNTPPTMDTDGSYFLYSKLNVKKETWQQGNTFTCSVLHEGLHNHHTEKSLSHSP light: DIQMTQSPASLSTSLGETVSIECLASEGISNDLAWYQQKSGKSPQLLIYAASRLQDGVPSRFSGSGSGTRYSLKISGMQPEDEADYFCQQSYKYPLTFGSGTKLEIKRADAAPTVSIFPPSTEQLATGGASVVCLMNNFYPRDISVKWKIDGTERRDGVLDSVTDQDSKDSTYSMSSTLSLTKADYESHNLYTCEVVHKTSSSPVVKSFNRNEC"
,,no binding,"PI-HX-3016 (antibody, rat IgG1, V domains shown, Rat IgG1 hybridoma antibody) VH: EVQLVESGGGLVKPGASLKLSCVASGFTFSDDWMNWVRQTPGKAMEWIGDIKYDGSYTNYVPSLKNRLTISRDNAKNTLYLQMTNVRSEDTATYYCTSGGVFDYWGQGVMVTVSS VL: EIVLSQSPTTMAASPGEKVTITCRASSSVSYMHWFQQKSGTSPKPWIYDTSKLASGVPDRFSGSGSGTSYSLTISSMEAEDAATYYCLQRSGYPPTFGAGTKLEVK"

# The remaining lines, values behind:
Binder,EC50 [1] [nM],Kd [2] [nM],binding result [3]
"PI-HX-3043 (antibody, rat IgG2a, Parental rat hybridoma, rat IgG2a) heavy: QVNLLQSRAALVKPGASVKLSCKASGYTFTDYYLHWVKQSHAKSLEWIGYINPNNAYTSYNEKFKSKATLTVDKSTNTAYMELSRLTSADSATYYCARDTTDYYNLHFAYWGQGTLVTVSSAETTAPSVYPLAPGTALKSNSMVTLGCLVKGYFPEPVTVTWNSGALSSGVHTFPAVLQSGLYTLTSSVTVPSSTWSSQAVTCNVAHPASSTKVDKKIVPRECNPCGCTGSEVSSVFIFPPKTKDVLTITLTPKVTCVVVDISQNDPEVRFSWFIDDVEVHTAQTHAPEKQSNSTLRSVSELPIVHRDWLNGKTFKCKVNSGAFPAPIEKSISKPEGTPRGPQVYTMAPPKEEMTQSQVSITCMVKGFYPPDIYTEWKMNGQPQENYKNTPPTMDTDGSYFLYSKLNVKKETWQQGNTFTCSVLHEGLHNHHTEKSLSHSP light: DIQMTQSPASLSASLGETVSIECLTSEGISNDLAWYQQKSGKSPQLLIYDASRLEDGVPSRFSGSGSGTRYSLKISGMQTEDEADYFCQQSYKYPLTFGSGTKLEIKRADAAPTVSIFPPSTEQLATGGASVVCLMNNFYPRDISVKWKIDGTERRDGVLDSVTDQDSKDSTYSMSSTLSLTKADYESHNLYTCEVVHKTSSSPVVKSFNRNEC",0.438,,
"PI-HX-3021 (antibody, V domains shown, Rat IgG2a hybridoma antibody; Not the effector dead PI-3021; also called PI-3007 (name of the recombinant form)) VH: QVRLVQSGTALVRPGASVRMSCTASGYSFTDYWVSWVKQSHGQSLEWIGEIYPNSGTTNFNEKFEGKATLTVDKSTSTAYMELSRLTSEDSAIYYCTGEGTFDYWGQGVMVTVSS VL: EIVLTQSPTTMAASPGEKVTITCRPSSSLSNMHWFQQKSGTSPKPWIYDTSKLASGVPDRFSGSGSGTSYSLTISSMEAEDAATYYCLQRSSYPPTFGAGTKLELK",,,no binding
